Results reported in patent US20090054323A1 (published 2009).
Where no end group is shown, it is not given here.

Key:
[1] = target: T1, human Ang-2 (human, UniProt O15123 19-496, limits assumed); test: phage display selection and phage ELISA on Ang-2
T1 construct: Sources differ by assay: R&D Systems 623-AN (mixture of 2 truncated versions) for initial screening; also called hAng-2; huAng-2
T1 sequence (looked up): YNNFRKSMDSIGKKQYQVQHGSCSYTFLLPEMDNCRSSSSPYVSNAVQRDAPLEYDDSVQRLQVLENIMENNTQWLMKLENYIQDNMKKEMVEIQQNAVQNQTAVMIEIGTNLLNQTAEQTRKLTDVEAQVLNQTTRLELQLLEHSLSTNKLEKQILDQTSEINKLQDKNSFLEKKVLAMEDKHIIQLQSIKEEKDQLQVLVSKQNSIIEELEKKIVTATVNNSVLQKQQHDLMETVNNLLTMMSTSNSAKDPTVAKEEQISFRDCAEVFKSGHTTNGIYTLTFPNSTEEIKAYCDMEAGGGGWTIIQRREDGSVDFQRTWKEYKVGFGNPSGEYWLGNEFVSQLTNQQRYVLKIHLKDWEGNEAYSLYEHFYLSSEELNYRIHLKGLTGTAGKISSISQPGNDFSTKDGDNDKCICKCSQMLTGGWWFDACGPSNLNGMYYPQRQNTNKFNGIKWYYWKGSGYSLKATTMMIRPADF
Procedure: Three filamentous phage libraries, designated as “TN8-IX” (5×10⁹ independent transformants), “TN12-I” (1.4×10⁹ independent transformants), and “Linear” (2.3×10⁹ independent transformants) (all from Dyax Corp.), were used to select for Ang-2 binding phage. […] For all three libraries, the phage from the first round of selection were eluted only in a non-specific manner for further rounds of selection.
An XL-1 Blue MRF′ culture was grown until OD₆₀₀ reached about 0.5. About thirty μl of this culture was aliquoted into each well of a 96-well microtiter plate. About 10 μl of eluted phage (section 4) was added to each well and allowed to infect bacteria for about 15 minutes at room temperature. About 100 μL of LB media containing approximately 12.5 μg/ml of tetracycline and approximately 50 μg/ml of ampicillin were added to each well. The microtiter plate was then incubated with shaking overnight at about 37° C. The recombinant Ang-2 protein (about 1 μg/ml in PBS) was allowed to bind to the 96 well Maxisorp plates (NUNC) overnight at about 4° C. As a control, the pure streptavidin was coated onto a separate Maxisorp plate at about 2 μg/ml in PBS.
On the following day, liquid in the protein coated Maxisorp plates was discarded, and each well was blocked with about 300 μl of 5% milk solution at about 4° C. overnight (alternatively, 1 hour at room temperature). The milk solution was then discarded, and the wells were washed three times with the PBST solution. After the last washing step, about 50 μl of PBST-4% milk was added to each well of the protein coated Maxisorp plates.

[2] = target: T1, human Ang-2; test: neutralization ELISA vs Tie-2-Fc

B1: TN8-8 (peptide)
peptide: KRPCEEMWGGCNYD
notes: Peptide from phage display selection on Ang-2
binding result [1]: binds

B2: PEG3.4K(L1-7 Peptide)2 (peptide)
peptide: C(poly(ethylene glycol)‑bis‑maleimide 3.4 kDa)GGGGGAQTNFMPMDDLEQRLYEQFILQQGLE
modifications: also: two peptides joined through Cys1 by PEG-bis-maleimide 3.4 kDa, one on each end
IC50 [2]: 0.058 nM

B3: L1 (peptide)
peptide: KFNPLDELEETLYEQFTFQQ
notes: as for B1
binding result [1]: binds

B4: C17 (peptide)
peptide: QYGCDGFLYGCMIN
notes: as for B1
binding result [1]: binds

B5: mPEG5K-(L1-7 Peptide) (peptide)
peptide: C(methoxy‑poly(ethylene glycol)‑maleimide 5 kDa)GGGGGAQTNFMPMDDLEQRLYEQFILQQGLE
IC50 [2]: 11.7 nM

B6: TN8-Con4 (peptide)
peptide: QEECEWDPWTCEHM
binding result [1]: binds

B7: TN8-14 (peptide)
peptide: HQICKWDPWTCKHW
notes: as for B1
binding result [1]: binds

B8: L1-7 Peptide (peptide)
peptide: CGGGGGAQTNFMPMDDLEQRLYEQFILQQGLE
notes: Synthetic peptide with N-terminal Cys and 5Gly linker; also called L1-7(unPEGylated Peptide); L1-7 free peptide
IC50 [2]: 0.49 nM

B9: TN12-9 (peptide)
peptide: FDYCEGVEDPFTFGCDNH
notes: as for B1
binding result [1]: binds

B10: PEO4(L1-7 Peptide)2 (peptide)
peptide: C(1,11‑bis‑maleimidotetraethyleneglycol)GGGGGAQTNFMPMDDLEQRLYEQFILQQGLE
modifications: also: two peptides joined through Cys1 by 1,11-bis-maleimidotetraethyleneglycol, one on each end
IC50 [2]: 0.064 nM

B11: TN8-Con1 (peptide)
peptide: KRPCEEIFGGCTYQ
binding result [1]: binds
